In US20120128661A1 (ALETHIA BIOTHERAPEUTICS, published 2012):
Changes are numbered by the printed parent chain. Values joined by “and” are separate entries in the source; they are usually repeats but may differ in a detail not shown here. Identical values can stand only once. Like-named read-outs stand apart in the source and are kept apart here.

T1: monomeric recombinant KAAG1 (human, UniProt Q9UBP8 1-84, limits assumed)
T1 construct: Analyte of the Biacore experiment
T1 sequence: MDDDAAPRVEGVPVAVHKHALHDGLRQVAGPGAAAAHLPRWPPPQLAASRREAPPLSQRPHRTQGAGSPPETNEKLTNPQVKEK

T2: recombinant Fc-KAAG1 fusion protein (full-length human KAAG1 fused to human Fc, from pYD5-0447 in 293E cells) (human, UniProt Q9UBP8 1-84, biotinylated with NHS-biotin for the ELISA (sites not given))
T2 construct: Order of parts follows the printed name Fc-KAAG1; also called recombinant KAAG1; not shown: its limits and the linker to KAAG
T2 sequence: T1 sequence

T3: Fc-fused truncated mutant of KAAG1 spanning amino acids 1-35 (human)
T3 construct: Made and purified like the full-length Fc-KAAG1; also called KAAG1 1-35
T3 chain: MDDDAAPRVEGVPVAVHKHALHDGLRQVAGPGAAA

B1: 3D3 hybrid antibody: chimeric light chain expressed with the humanized heavy chain (antibody, human IgG1, V domains shown)
VH: EVQLVQSGAEVKKPGASVKVSCKASGYIFTDYEIHWVRQAPGQGLEWMGVIDPETGNTAFNQKFKGRVTITADTSTSTAYMELSSLTSEDTAVYYCMGYSDYWGQGTLVTVSS
VL: DIVMTQSPSSLAVSIGQKVTMNCKSSQSLLNSNFQKNFLAWYQQKPGQSPKLLIYFASTRESSIPDRFIGSGSGTDFTLTISSVQAEDLADYFCQQHYSTPLTFGAGTKLELKA
B2: humanized 3D3 anti-KAAG1 antibody (human IgG1) (antibody, V domains shown)
VH: B1 VH
VL: DIVMTQSPDSLAVSLGERATINCKSSQSLLNSNFQKNFLAWYQQKPGQPPKLLIYFASTRESSVPDRFSGSGSGTDFTLTISSLQAEDVAVYYCQQHYSTPLTFGQGTKLEIKR
notes: The residues before them (leader) are left out on that ground; also called h3D3; HH
B3: 3D3 mouse anti-KAAG1 Fab (Fab, V domains shown)
VH: EVQLQQSVAELVRPGASVTLSCKASGYIFTDYEIHWVKQTPVHGLEWIGVIDPETGNTAFNQKFKGKATLTADISSSTAYMELSSLTSEDSAVYYCMGYSDYWGQGTTLTVSS
VL: DIVMTQSPSSLAVSIGQKVTMNCKSSQSLLNSNFQKNFLAWYQQKPGQSPKLLIYFASTRESSIPDRFIGSGSGTDFTLTISSVQAEDLADYFCQQHYSTPLTFGAGTKLELK
notes: Recombinant mouse Fab made in E. coli; also called 3D3 Fab
B4: G12 (Fab, V domains shown)
VH: B3 VH with L20V, V42A
VL: DIVMTQSPKFMSTSVGDRVSITCKASQDVGTAVAWYQQKPGQSPELLIYWTSTRHTGVPDRFSGSGSGTDFTLTISSVQAEDLADYFCQQHYSIPLTFGAGTKLELR
B5: 3D3 mouse-human chimeric IgG1 anti-KAAG1 monoclonal antibody (antibody, V domains shown)
VH: B3 VH
VL: B1 VL
notes: Mouse variable regions on human IgG1 and kappa constant regions, made in 293E cells; In the Biacore experiment two KD values are told for this composition, under the labels m3D3 and CC; also called chimeric 3D3; m3D3
B6: 3D3 hybrid antibody: humanized light chain expressed with the chimeric heavy chain (antibody, V domains shown)
VH: B3 VH
VL: B2 VL
notes: also called HC
B7: anti-KAAG1 Fab of well E10 (plate from Omniclonal library #3) (Fab, V domains shown)
VH: EVQLQQSGPELVKPGASVKISCKASGDTFTDYYMNWVKQSHGKSLEWIGDINPNYGGITYNQKFKGKATLTVDTSSSTAYMELRGLTSEDSAVYYCQAYYRNSDYWGQGTTLTVSS
VL: DIVMTQAAPSVPVTPGESVSISCRSSKSLLHSNGNTYLYWFLQRPGQSPQLLIYRMSNLASGVPDRFSGSGSGTAFTLRISRVEAEDVGVYYCMQHLEYPYTFGGGTKLEIK
B8: 3G10 mouse anti-KAAG1 Fab (Fab, V domains shown)
VH: EIQLQQSGPELVKPGASVKISCKASGYTFTDNYMNWVKQSHGKSLEWIGDINPYYGTTTYNQKFKGKATLTVDKSSRTAYMELRGLTSEDSAVYYCARDDWFDYWGQGTLVTVSA
VL: DVLMTQTPRSLSVSLGDQASISCRSSQSLLHSNGNTYLEWYLQKPGQPPKVLIYKVSNRFSGVPDRFSGSGSGTDFTLKISGVEAEDLGVYYCFQGSHVPLTFGAGTKLELK
notes: Recombinant mouse Fab made in E. coli; also called 3G10 Fab
B9: 3C4 mouse anti-KAAG1 Fab (Fab, V domains shown)
VH: EVQLQESGPDLVKPSQSLSLTCTVTGFSITSGYGWHWIRQFPGNKLEWMGYINYDGHNDYNPSLKSRISITQDTSKNQFFLQLNSVTTEDTATYYCASSYDGLFAYWGQGTLVTVSA
VL: DIVMSQSPSSMYASLGERVTITCKASQDIHNFLNWFQQKPGKSPKTLIFRANRLVDGVPSRFSGSGSGQDYSLTISSLEFEDLGIYSCLQYDEIPLTFGAGTKLELR
notes: Recombinant mouse Fab made in E. coli; also called 3C4 Fab
B10: anti-KAAG1 Fab of well D1 (plate from Omniclonal library #3) (Fab, V domains shown)
VH: B9 VH with N44D, N53S, Y54F, D55N, H57D, N58Y, D59N, Q72R, N84S
VL: DIKMTQSPSSMYASLGERVTITCKASQDIHTYLNWFQQKPGKSPETLIYRANRLVDGVPSRFSGSGSGQDYSLTISSLEYEDMGIYYCLQYDEFPLTFGAGTKLELK
B11: anti-KAAG1 Fab of well C2 (plate from Omniclonal library #3) (Fab, V domains shown)
VH: B9 VH with E1D, N53S, Y54F, D55N, H57D, N58S, D59N, Q72R, T88S, T111P
VL: B10 VL with K3Q, I21L, T31N, E45K, Y49H, D56A, M83L, E93A

Experiments:
[1] = target: T1, monomeric recombinant KAAG1; test: SPR (Biacore); antibody captured on anti-human Fc, monomeric KAAG1 injected, 1:1 fit, average KD; chimeric light chain, humanized heavy chain (CH)
Procedure: (§1) More precise measurements were conducted using Surface Plasmon Resonance (SPR) in a Biacore instrument. Kinetic analysis was used to compare the affinity of the chimeric 3D3 with the h3D3 as well as with hybrid antibodies encompassing different permutations of the light and heavy chains (see FIG. 18B). Briefly, anti-human Fc was immobilized on the Biacore sensor chip and chimeric or h3D3 was captured on the chip. Different concentrations of monomeric recombinant KAAG1 were injected and the data were globally fitted to a simple 1:1 model to determine the kinetic parameters of the interaction.

[2] = target: T1, monomeric recombinant KAAG1; test: SPR (Biacore), antibody captured on anti-human Fc, monomeric KAAG1 injected, 1:1 model
Procedure: as §1

[3] = target: T1, monomeric recombinant KAAG1; test: SPR (Biacore); antibody captured on anti-human Fc, monomeric KAAG1 injected, 1:1 fit, average KD; humanized light and heavy chains (HH)
Procedure: as §1

[4] = target: T2, recombinant Fc-KAAG1 fusion protein …; test: ELISA, 1 ng Fab/well on Fc-KAAG1 [D00012 Figure 7C]
Procedure: (§2) The 96-well master plate of monoclonal preparations contained different concentrations of purified anti-KAAG1 Fabs in each well. A second stock master plate was prepared by diluting the Fabs to a final concentration of 10 μg/ml from which all subsequent dilutions were performed for ELISA measurements. To carry out the binding of Fc-KAAG1 to the monoclonal preparations, the Fc-KAAG1 was biotinylated with NHS-biotin (Pierce, Rockford, Ill.) and 10 ng/well was coated in a streptavidin 96-well plate. One nanogram of each Fab monoclonal preparation was added to each well and incubated at room temperature for 30 minutes. Bound antibody was detected with HRP-conjugated mouse anti-kappa light chain antibody in the presence of TMB liquid substrate (Sigma-Aldrich Canada Ltd., Oakville, ON) and readings were conducted at 450 nm in microtiter plate reader.

[5] = target: T2, recombinant Fc-KAAG1 fusion protein …; test: ELISA on recombinant Fc-KAAG1
Procedure: as §2
Expression of human IgG1s in 293E cells—The expression vectors prepared above that encoded the light and heavy chain immunoglobulins were expressed in 293E cells using the transient transfection system (Durocher et al., 2002). The methods used for co-transfecting the light and heavy chain expression vectors were described in Example 5. […] The ability of the chimeric anti-KAAG1 monoclonal antibodies to bind to recombinant Fc-KAAG1 was measured in the ELISA and compared with the original mouse Fabs. The method was described in Example 5. […]

[6] = target: Fc-0447 1-60 (human) (UniProt Q9UBP8); test: ELISA, Fab plate on Fc-0447 1-60
[7] = target: T1, monomeric recombinant KAAG1; test: SPR (Biacore); antibody captured on anti-human Fc, monomeric KAAG1 injected, 1:1 fit, average KD; chimeric light + chimeric heavy chain co-expressed, 'CC' of the permutation set
Procedure: as §1

[8] = target: T2, recombinant Fc-KAAG1 fusion protein …; test: ELISA on recombinant Fc-KAAG1; remark: listed apart in the source
[9] = target: T1, monomeric recombinant KAAG1; test: SPR (Biacore); antibody captured on anti-human Fc, monomeric KAAG1 injected, 1:1 fit, average KD; chimeric 3D3 tabulated as m3D3 in FIG. 18B
Procedure: as §1

[10] = target: T1, monomeric recombinant KAAG1; test: SPR (Biacore); antibody captured on anti-human Fc, monomeric KAAG1 injected, 1:1 fit, average KD; humanized light chain, chimeric heavy chain (HC)
Procedure: as §1

[11] = target: T3, Fc-fused truncated mutant of KAAG1 …; test: ELISA, Fab plate on Fc-0447 1-35

Row | Binder | Ka [2] | koff [2] | kon [2] | OD450 [4] | further results
1 | B1 | 1.98e+09 M⁻¹ | 0.00111 s⁻¹ | 2.2e+06 M⁻¹ s⁻¹ | – | Kd [1]: 0.505 nM
2 | B2 | 2.28e+09 M⁻¹ | 0.00111 s⁻¹ | 2.53e+06 M⁻¹ s⁻¹ | – | Kd [3]: 0.439 nM
3 | B3 | – | – | – | 1.21 OD450 | EC50 (read off the curve) [5]: ~0.5 µg/mL; OD450 [6]: 1.33 OD450
4 | B4 | – | – | – | 1.38 OD450 | –
5 | B5 | 4.5e+09 M⁻¹ and 2.71e+09 M⁻¹ | 0.00065 s⁻¹ and 0.00073 s⁻¹ | 2.91e+06 M⁻¹ s⁻¹ and 1.98e+06 M⁻¹ s⁻¹ | – | Kd [7]: 0.271 nM; EC50 (read off the curve) [8]: ~0.4 µg/mL; Kd [9]: 0.235 nM; Kd [2]: 0.368 nM
6 | B6 | 3.24e+09 M⁻¹ | 0.00073 s⁻¹ | 2.36e+06 M⁻¹ s⁻¹ | – | Kd [10]: 0.309 nM
7 | B7 | – | – | – | 0.02 OD450 | OD450 [11]: 0.33 OD450; OD450 [6]: -0.02 OD450
8 | B8 | – | – | – | 2.78 OD450 | –
9 | B9 | – | – | – | 0.25 OD450 | OD450 [6]: 0.57 OD450
10 | B10 | – | – | – | 0.15 OD450 | OD450 [11]: 1.21 OD450
11 | B11 | – | – | – | 0.32 OD450 | OD450 [11]: 1.97 OD450
